In patent US20040214256:

T1: Compound 1s, Ac-Ile-Ile-PyA-pNF-Asn-Thr-Pro-Glu-His-Val-Val-Pro-Tyr-Gly-Leu-Gly-Ser-COOH
T1 sequence: IIXXNTPEHVVPYGLGS

T2: peptide 3s, Ac-Ser-Gly-PyA-Lys-Ala-Phe-Ala-pNF-Gly-Lys NH2
T2 sequence: SGXKAFAXGK

T3: Compound 2s, Ac-Arg-Pro-Lys-Pro-Gln-Gln-PyA-pNF-Gly-Leu-Met-NH2
T3 sequence: RPKPQQXXGLM

T4: peptide 3s, Ac-Ser-Gly-PyA-Lys-Ala-Phe-Ala-pNF-Gly-Lys NH2
T4 chain: SGXKAFAXGK

T5: Compound 1s, Ac-Ile-Ile-PyA-pNF-Asn-Thr-Pro-Glu-His-Val-Val-Pro-Tyr-Gly-Leu-Gly-Ser-COOH
T5 chain: IIXXNTPEHVVPYGLGS

B1: endothelin-converting enzyme (ECE) (protein)
chain: MMSTYKRATLDEEDLVDSLSEGDAYPNGLQVNFHSPRSGQRCWAARTQVEKRLVVLVVLLAAGLVACLAALGIQYQTRSPSVCLSEACVSVTSSILSSMDPTVDPCHDFFSYACGGWIKANPVPDGHSRWGTFSNLWEHNQAIIKHLLENSTASVSEAERKAQVYYRACMNETRIEELRAKPLMELIERLGGWNITGPWAKDNFQDTLQVVTAHYRTSPFFSVYVSADSKNSNSNVIQVDQSGLGLPSRDYYLNKTENEKVLTGYLNYMVQLGKLLGGGDEEAIRPQMQQILDFETALANITIPQEKRRDEELIYHKVTAAELQTLAPAINWLPFLNTIFYPVEINESEPIVVYDKEYLEQISTLINTTDRCLLNNYMIWNLVRKTSSFLDQRFQDADEKFMEVMYGTKKTCLPRWKFCVSDTENNLGFALGPMFVKATFAEDSKSIATEIILEIKKAFEESLSTLKWMDEETRKSAKEKADAIYNMIGYPNFIMDPKELDKVFNDYTAVPDLYFENAMRFFNFSWRVTADQLRKAPNRDQWSMTPPMVNAYYSPTKNEIVFPAGILQAPFYTRSSPKALNFGGIGVVVGHELTHAFDDQGREYDKDGNLRPWWKNSSVEAFKRQTECMVEQYSNYSVNGEPVNGRHTLGENIADNGGLKAAYRAYQNWVKKNGAEHSLPTLGLTNNQLFFLGFAQVWCSVRTPESSHEGLITDPHSPSRFRVIGSLSNSKEFSEHFRCPPGSPMNPPHKCEVW

Columns and labels:
[1] = tested on: T1, Compound 1s, Ac-Ile-Ile-PyA-pNF-Asn-Thr-Pro-Glu-His-Val-Val-Pro-Tyr-Gly-Leu-Gly-Ser-COOH
[2] = tested on: T2, peptide 3s, Ac-Ser-Gly-PyA-Lys-Ala-Phe-Ala-pNF-Gly-Lys NH2
[3] = tested on: T3, Compound 2s, Ac-Arg-Pro-Lys-Pro-Gln-Gln-PyA-pNF-Gly-Leu-Met-NH2
[4] = biological target: T4, peptide 3s, …
[5] = biological target: T5, Compound 1s, …

Molecule | cleavage by HPLC after 2 h at 37° C. [1] | cleavage by HPLC after 2 h at 37° C. [2] | cleavage by HPLC after 2 h at 37° C. [3] | cleavage products by HPLC [4] | Km (fluorimetric cleavage assay, ENZFITTER) [5] | cleavage products by HPLC [5]
neprilysin (NEP) | no cleavage is observed by HPLC after incubation for 2 h at 37 °C | no cleavage is observed by HPLC after incubation for 2 h at 37 °C | no cleavage is observed by HPLC after incubation for 2 h at 37 °C |  |  | 
angiotensin-converting enzyme (ACE) | no cleavage is observed by HPLC after incubation for 2 h at 37 °C | no cleavage is observed by HPLC after incubation for 2 h at 37 °C | no cleavage is observed by HPLC after incubation for 2 h at 37 °C |  |  | 
B1 |  |  |  | produce only two metabolites, as shown by analysis of the reaction by HPLC, corresponding to the single cleavage at the PyA-pNF peptide bond | 1s, Km=22.1±0.9 µM | In all cases, a single cleavage site at the L.PyA-Lp.NF dipeptide was observed, generating only two metabolites
